Experimental data from publication doi:10.1101/2020.12.07.415216.

Target: SARS-CoV-2 RBD homotrimer (RBD appended onto a cystine-stabilized, hyperglycosylated GCN4 trimerization tag) (SARS-CoV-2)
Experiment: SDS-PAGE under non-reducing conditions

## SARS-CoV-2 RBD homotrimer (RBD appended onto a cystine-stabilized, hyperglycosylated GCN4 trimerization tag)
  stoichiometry N: 3
